From US20230287145A1 (Hoffmann-La Roche, published 2023)
Positions count from the first letter of the chain named. Names and notes keep the numbering of the source.

B1: TYRP1 TCB containing optimized anti-CD3 antibody clone P033.078 (bispecific antibody, human IgG1, kappa, L234A L235A)
heavy 1: not shown
heavy 2: QVQLVQSGAEVKKPGASVKVSCKASGFNIKDYFLHWVRQAPGQGLEWMGWINPDNGNTVYAQKFQGRVTMTADTSTSTVYMELSSLRSEDTAVYYCTRRDYTYEKAALDYWGQGTLVTVSSASTKGPSVFPLAPSSKSTSGGTAALGCLVEDYFPEPVTVSWNSGALTSGVHTFPAVLQSSGLYSLSSVVTVPSSSLGTQTYICNVNHKPSNTKVDEKVEPKSCDKTHTCPPCPAPEAAGGPSVFLFPPKPKDTLMISRTPEVTCVVVDVSHEDPEVKFNWYVDGVEVHNAKTKPREEQYNSTYRVVSVLTVLHQDWLNGKEYKCKVSNKALGAPIEKTISKAKGQPREPQVCTLPPSRDELTKNQVSLSCAVKGFYPSDIAVEWESNGQPENNYKTTPPVLDSDGSFFLVSKLTVDKSRWQQGNVFSCSVMHEALHNHYTQKSLSLSP
light 1: DIQMTQSPSSLSASVGDRVTITCRASGNIYNYLAWYQQKPGKVPKLLIYDAKTLADGVPSRFSGSGSGTDFTLTISSLQPEDVATYYCQHFWSLPFTFGQGTKLEIKRTVAAPSVFIFPPSDRKLKSGTASVVCLLNNFYPREAKVQWKVDNALQSGNSQESVTEQDSKDSTYSLSSTLTLSKADYEKHKVYACEVTHQGLSSPVTKSFNRGEC
light 2: EVQLLESGGGLVQPGGSLRLSCAASGFTFESYAMNWVRQAPGKGLEWVSRIRSKYNEYATYYADSVKGRFTISRDDSKNTLYLQMNSLRAEDTAVYYCVRASNFPSSFVSYFGYWGQGTLVTVSSASVAAPSVFIFPPSDEQLKSGTASVVCLLNNFYPREAKVQWKVDNALQSGNSQESVTEQDSKDSTYSLSSTLTLSKADYEKHKVYACEVTHQGLSSPVTKSFNRGEC
notes: 2+1 IgG CrossFab, inverted, with charge modifications; knob-into-hole, P329G L234A L235A; also called CD3opt (P033.078); P033.078 in TCB format
B2: Humanized variant H1L2 of anti-idiotypic antibody 4.24.72 (IgG) (antibody, V domains shown)
VH: QVQLVQSGSELKKPGASVKVSCKASGYTVTDYSMNWVRQAPGQGLEWMGWINTETGEPRYTDDFKGRFVFSLDTSVSTAYLQISSLKAEDTAVYYCAREGDYDVFDYWGQGTLVTVSS
VL: DIVMTQSPDSLAVSLGERATINCKSSKSVSTSSYSYMHWYQQKPGQPPKLLIKYVSYLESGVPDRFSGSGSGTDFTLTISSLQAEDVAVYYCQHSREFPYTFGQGTKLEIK
notes: Produced and purified as IgG; also called Mask humanization variant H1L2
B3: Humanized variant H3L2 of anti-idiotypic antibody 4.24.72 (IgG) (antibody, V domains shown)
VH: B2 VH with D62Q, D63G
VL: B2 VL
notes: Produced and purified as IgG; also called Mask humanization variant H3L2
B4: Humanized variant H2L2 of anti-idiotypic antibody 4.24.72 (IgG) (antibody, V domains shown)
VH: B2 VH with K65T
VL: B2 VL
notes: Produced and purified as IgG; also called Mask humanization variant H2L2
B5: Humanized variant H1L1 of anti-idiotypic antibody 4.24.72 (IgG) (antibody, V domains shown)
VH: B2 VH
VL: B2 VL with K24R, S25A
notes: Produced and purified as IgG; also called Mask humanization variant H1L1

What was measured:
[1] = target: T1, Human CD3ε stalk-Fc(knob)-Avi/CD3δ stalk-Fc(hole) (human); assay: SPR, TCB format, monovalent binding
T1 construct: Heterodimeric Fc fusion; also called human CD3ε/δ; Human CD3 epsilon stalk-Fc(knob)-Avi
Procedure: The experimental setup is schematically depicted in FIG. 3.
The dissociation was monitored for 800 s.
Kinetic constants were derived using the Biacore T200 Evaluation Software (GE Healthcare Life Sciences), to fit rate equations for 1:1 Langmuir binding by numerical integration. The half-life (t_{1/2}) of the interaction was calculated using the formula t_{1/2}=ln 2/koff.

[2] = target: T1, Human CD3ε stalk-Fc(knob)-Avi/CD3δ …; assay: SPR, biotinylated human CD3ε/δ on SA chip, TCB at 2 µg/ml; response normalised to anti-huIgG capture and referenced to the unstressed sample; after 2 weeks at pH 6.0/40 °C
Procedure: (§1) In order to assess the effect of the deamidation site removal and its effect on the stability of the antibodies, the optimized anti-CD3 antibodies (in TCB format) were incubated for 14 days at 37° C., pH 7.4 and at 40° C., pH 6 and further analyzed by SPR for their binding capability to human CD3ε/δ. Samples stored at −80° C. pH 6 were used as reference. The reference samples and the samples stressed at 40° C. were in 20 mM His, 140 mM NaCl, pH 6.0, and the samples stressed at 37° C. in PBS, pH 7.4, all at a concentration of 1.0 mg/ml. After the stress period (14 days) samples in PBS were dialyzed back to 20 mM His, 140 mM NaCl, pH 6.0 for further analysis.
(§2) All SPR experiments were performed on a Biacore T200 instrument (GE Healthcare) at 25° C. with HBS-P+ (10 mM HEPES, 150 mM NaCl pH 7.4, 0.05% Surfactant P20) as running and dilution buffer. Biotinylated human CD3ε/δ (see Example 3, SEQ ID NOs 41 and 42) as well as biotinylated anti-huIgG (Capture Select, Thermo Scientific, #7103262100) were immobilized on a Series S Sensor Chip SA (GE Healthcare, #29104992), resulting in surface densities of at least 1000 resonance units (RU). Anti-CD3 antibodies with a concentration of 2 μg/ml were injected for 30 s at a flow rate of 5 μl/min, and dissociation was monitored for 120 s. The surface was regenerated by injecting 10 mM glycine pH 1.5 for 60 s. Bulk refractive index differences were corrected by subtracting blank injections and by subtracting the response obtained from a blank control flow cell. For evaluation, the binding response 5 seconds after injection end was taken. To normalize the binding signal, the CD3 binding was divided by the anti-huIgG response (the signal (RU) obtained upon capture of the CD3 antibody on the immobilized anti-huIgG antibody). The relative binding activity was calculated by referencing each temperature stressed sample to the corresponding, non-stressed sample.

[3] = target: T1, Human CD3ε stalk-Fc(knob)-Avi/CD3δ …; assay: SPR, biotinylated human CD3ε/δ on SA chip, TCB at 2 µg/ml; response normalised to anti-huIgG capture and referenced to the unstressed sample; after 2 weeks at pH 7.4/37 °C
Procedure: as §1, §2

FOLR1 CD3 TCB P035.093 [4] = target: T2, FOLR1 CD3 TCB P035.093; assay: SPR, Biacore T200, 37 °C; FOLR1 CD3 TCB P035.093 captured on FOLR1-Fc (C1 chip), anti-idiotypic antibody as analyte; n=5; Stdev 198 s
T2 construct: Classical 2+1 TCB, knob-into-hole, PGLALA; the common light chain pairs with each of the Fabs; also called FOLR1 TCB CD3: P035.093
Procedure: (§3) Briefly, FOLR1-Fc was immobilized on a series s sensor chip C1 using standard amine coupling chemistry according to the manufacturer's instructions. […] The first flow cell was kept as mock surface. […] Dissociation was monitored for 300 s, the flow rate was set to 30 μl/min. The surface was regenerated by injecting 10 mM Glycine pH 2.0 for 60 s, followed by injecting 5 mM NaOH for 60 s at a flow rate of 5 μl/min. Bulk refractive index differences were corrected by subtracting the response obtained from flow cell one (mock surface) as well as by substracting buffer injections (double referencing). The derived curves were fitted to a 1:1 Langmuir binding model using the BIAevaluation software (GE Healthcare). […] All experiments were performed at 37° C. using HBS-N (10 mM HEPES, 150 mM NaCl pH 7.4, 0.05% Surfactant P-20).

FOLR1 CD3 TCB P035.093 [5] = target: T2, FOLR1 CD3 TCB P035.093; assay: SPR, Biacore T200, 37 °C; FOLR1 CD3 TCB P035.093 captured on FOLR1-Fc (C1 chip), anti-idiotypic antibody 1.2-100 nM as analyte; 1:1 Langmuir fit; n=5; Stdev 0.5 nM
Procedure: as §3

[6] = target: T3, biotinylated anti-human CD3 IgG (anti-CD3 P035.093) (biotinylated (site not stated)); assay: SPR; biotinylated anti-CD3 P035.093 IgG on CAP chip, anti-idiotypic IgG at 1 µg/ml; response normalised to anti-human IgG surface and to the unstressed sample; after 14 d at 37 °C pH 7.4
T3 construct: IgG format of this reagent is not described further; immobilised on a CAP chip; also called CD3 IgG (P035.093)
Procedure: Therefore, they were analyzed for thermal stability and remaining target binding after 14 d stress conditions (40° C. at pH6.0 or 37° C. at pH7.4).
(§4) Flow cell 1 was kept as mock surface. […] Dissociation was monitored for 30 s, the flow rate was set to 5 μl/min. The CAP chip was regenerated by injecting a mix of NaOH and Guadinium-hydrochloride for 120 s, provided in the biotin capture kit. Bulk refractive index differences were corrected by subtracting the response obtained from flow cell 1 (mock surface).

[7] = target: T3, biotinylated anti-human CD3 IgG …; assay: SPR; biotinylated anti-CD3 P035.093 IgG on CAP chip, anti-idiotypic IgG at 1 µg/ml; response normalised to anti-human IgG surface and to the unstressed sample; after 14 d at 40 °C pH 6.0
Procedure: as §4

FOLR1 CD3 TCB P035.093 [8] = target: T2, FOLR1 CD3 TCB P035.093; assay: SPR, Biacore T200, 37 °C; FOLR1 CD3 TCB P035.093 captured on FOLR1-Fc (C1 chip), anti-idiotypic antibody as analyte; n=5; Stdev 222 s
Procedure: as §3

FOLR1 CD3 TCB P035.093 [9] = target: T2, FOLR1 CD3 TCB P035.093; assay: SPR, Biacore T200, 37 °C; FOLR1 CD3 TCB P035.093 captured on FOLR1-Fc (C1 chip), anti-idiotypic antibody as analyte; n=5; Stdev 156 s
Procedure: as §3

FOLR1 CD3 TCB P035.093 [10] = target: T2, FOLR1 CD3 TCB P035.093; assay: SPR, Biacore T200, 37 °C; FOLR1 CD3 TCB P035.093 captured on FOLR1-Fc (C1 chip), anti-idiotypic antibody 1.2-100 nM as analyte; 1:1 Langmuir fit; n=5; Stdev 1.0 nM
Procedure: as §3

FOLR1 CD3 TCB P035.093 [11] = target: T2, FOLR1 CD3 TCB P035.093; assay: SPR, Biacore T200, 37 °C; FOLR1 CD3 TCB P035.093 captured on FOLR1-Fc (C1 chip), anti-idiotypic antibody as analyte; n=5; Stdev 66 s
Procedure: as §3

FOLR1 CD3 TCB P035.093 [12] = target: T2, FOLR1 CD3 TCB P035.093; assay: SPR, Biacore T200, 37 °C; FOLR1 CD3 TCB P035.093 captured on FOLR1-Fc (C1 chip), anti-idiotypic antibody 1.2-100 nM as analyte; 1:1 Langmuir fit; n=5; Stdev 0.6 nM
Procedure: as §3

T3 sequence (VH, as listed by the source, chain 1 of 2): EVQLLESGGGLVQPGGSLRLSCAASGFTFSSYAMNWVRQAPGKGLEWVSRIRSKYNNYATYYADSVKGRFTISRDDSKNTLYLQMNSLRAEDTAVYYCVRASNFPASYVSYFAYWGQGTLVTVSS
T3 sequence (VL, as listed by the source, chain 2 of 2): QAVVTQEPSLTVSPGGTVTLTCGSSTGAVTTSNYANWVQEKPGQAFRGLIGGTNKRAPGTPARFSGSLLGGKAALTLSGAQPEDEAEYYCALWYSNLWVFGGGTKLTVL

Row | Binder | Kd (FOLR1 CD3 TCB P035.093 [5]) | Rel. active concentration [%] [6] | Rel. active concentration [%] [7] | also measured
1 | B1 | – | – | – | fold of binding half-life over CD3orig [1]: ≤ 6 fold; binding activity [%] [2]: 99%; binding activity [%] [3]: 99%
2 | B2 | 1.2 nM | 94% | 97% | t1/2 diss (FOLR1 CD3 TCB P035.093 [4]): 6.6 min
3 | B3 | 1.1 nM | 94% | 97% | t1/2 diss (FOLR1 CD3 TCB P035.093 [8]): 7.67 min
4 | B4 | – | 93% | 98% | t1/2 diss (FOLR1 CD3 TCB P035.093 [9]): 6.2 min; Kd (FOLR1 CD3 TCB P035.093 [10]): 1.8 nM
5 | B5 | – | 93% | 99% | t1/2 diss (FOLR1 CD3 TCB P035.093 [11]): 6.18 min; Kd (FOLR1 CD3 TCB P035.093 [12]): 1.8 nM
